This is an account of results in doi:10.1101/2024.11.22.624870.

In this experiment the target is camel APN (aminopeptidase N) (camel).

In turn, “hCoV/229E-inf1 spike protein (S) (from UniProt P15423 16-1173) (natural protein)” yielded a pseudovirus entry, percentage of usage (min-max scaled), without hTMPRSS2 of 3%.
